How the values were obtained:
[1] = biological target: T1, ヒト前立腺特異的膜抗原(PSMA) (human, UniProt Q04609 1-750); assay: flow cytometry, 10 μg/mL, Namalwa KJM-1 cells transfected with PSMA cDNA (pAMoPSMA)
T1 construct: whole, on cells; also called PSMA; ヒトPSMA

[2] = biological target: T1, ヒト前立腺特異的膜抗原(PSMA); assay: flow cytometry, 10 μg/mL, LNCaP cells

T1 sequence (Q04609 whole entry): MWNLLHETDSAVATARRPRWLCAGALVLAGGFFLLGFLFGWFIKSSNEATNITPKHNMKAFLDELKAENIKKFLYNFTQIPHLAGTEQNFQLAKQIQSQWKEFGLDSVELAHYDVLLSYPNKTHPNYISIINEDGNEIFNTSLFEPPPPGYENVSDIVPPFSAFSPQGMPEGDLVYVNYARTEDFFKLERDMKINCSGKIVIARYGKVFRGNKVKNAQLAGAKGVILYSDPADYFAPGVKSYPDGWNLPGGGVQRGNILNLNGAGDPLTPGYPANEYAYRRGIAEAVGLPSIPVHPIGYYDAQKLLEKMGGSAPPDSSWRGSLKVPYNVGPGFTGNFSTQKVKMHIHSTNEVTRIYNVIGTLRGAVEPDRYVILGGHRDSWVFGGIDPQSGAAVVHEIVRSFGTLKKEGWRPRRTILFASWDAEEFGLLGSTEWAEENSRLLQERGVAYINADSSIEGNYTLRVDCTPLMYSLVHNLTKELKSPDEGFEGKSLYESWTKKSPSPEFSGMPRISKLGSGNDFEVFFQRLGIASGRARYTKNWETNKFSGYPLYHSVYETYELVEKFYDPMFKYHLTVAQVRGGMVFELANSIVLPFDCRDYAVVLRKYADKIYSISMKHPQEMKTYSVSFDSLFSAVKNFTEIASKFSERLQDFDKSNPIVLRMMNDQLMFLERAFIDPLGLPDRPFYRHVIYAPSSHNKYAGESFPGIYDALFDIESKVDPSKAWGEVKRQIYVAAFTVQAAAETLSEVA

binding result [1]	binding result [2]	Binder
binds		抗PSMAマウス抗体2C9 (antibody, V domains shown, Whole mouse antibody from hybridoma; also called マウスモノクローナル抗体2C9; 2C9) VH: DVHLQESGPGLVKPSQSLSLTCTVTGYSITSDYAWNWIRQFPGNKLEWMGYISFSGSTSYNPSLKSRISVTRDTSKNQFFLQLNSVTTEDTATYYCARWNYYGSSHVWFAYWGQGTLVTVSA VL: DIKMTQSPSSMYASLGERVTITCKASQDIYSYLIWFQQKPGKSPKTLIYRANRLVDGVPSRFSGSGSGQDYSLTISSLEYEDMGIYYCLQYDEFATFGSGTKLEMKR
	binds	アドリアマイシン結合抗PSMAキメラ抗体ADM−KM2777 (antibody, human IgG1, V domains shown, as for the heavy chain: linker on amino groups, sites not stated; adriamycin-(Gly-Pro)-PEG linker (PEG average MW about 2,000) coupled through NHS ester to amino groups of the antibody; on average 2.5 ADM per antibody molecule; sites not stated, also called ADM-KM2777) VH: DVHLQESGPGLVKPSQSLSLTCTVTGYSITSDYAWNWIRQFPGNKLEWMGYISFSGSTSYNPSLKSRISVTRDTSKNQFFLQLNSVTTEDTATYYCARWNYYGSSHVWFAYWGQGTLVTVSA VL: DIKMTQSPSSMYASLGERVTITCKASQDIYSYLIWFQQKPGKSPKTLIYRANRLVDGVPSRFSGSGSGQDYSLTISSLEYEDMGIYYCLQYDEFATFGSGTKLEMKR
	binds	抗PSMAキメラ抗体KM2777 (antibody, human IgG1, V domains shown, Human-type chimeric antibody: 2C9 VH joined to human IgG1 CH and 2C9 VL joined to human kappa CL (vector pKANTEX93), produced in YB2/0 cells; also called KM2777; 抗PSMAヒト型キメラ抗体) VH: DVHLQESGPGLVKPSQSLSLTCTVTGYSITSDYAWNWIRQFPGNKLEWMGYISFSGSTSYNPSLKSRISVTRDTSKNQFFLQLNSVTTEDTATYYCARWNYYGSSHVWFAYWGQGTLVTVSA VL: DIKMTQSPSSMYASLGERVTITCKASQDIYSYLIWFQQKPGKSPKTLIYRANRLVDGVPSRFSGSGSGQDYSLTISSLEYEDMGIYYCLQYDEFATFGSGTKLEMKR

From patent JP2004000045A (dated 2004)
